Assay results: article doi:10.1101/2022.08.30.505904
Blank lines part the entries; values can stand above or below the substance they belong to.

Experiments:
[1] = biological target: PaPcc2 with C-terminal hexa-histidine tag (Pyrococcus abyssi GE5); test: SEC
[2] = biological target: CBKP2 complex (PaCgi121/PaBud32/PaKae1/PaPcc2) (Pyrococcus abyssi | Pyrococcus abyssi GE5) (UniProt Q9UXT7); test: SEC-SAXS
[3] = biological target: CBKP1 complex (PaCgi121/PaBud32/PaKae1/PaPcc1) (Pyrococcus abyssi) (UniProt Q9UXT7); test: SEC-SAXS

stoichiometry N [1]: 2
Substance: PaPcc2 with C-terminal hexa-histidine tag (natural protein)

Substance: CBKP2 complex (PaCgi121/PaBud32/PaKae1/PaPcc2) (from UniProt Q9UXT7 1-324)
stoichiometry N [2]: 2

Substance: CBKP1 complex (PaCgi121/PaBud32/PaKae1/PaPcc1) (from UniProt Q9UXT7 1-324)
stoichiometry N [3]: 2
